Here are results for one protein from paper PMC8629787 (Cellular and Molecular Life Sciences: CMLS, 2021).

For orientation: stoichiometry N means the number of molecules, sites or subunits per partner or assembly.

The data set concerns the molecule itself. In words: SEC. Background: In gel filtration, larger molecules generally elute earlier.

B1: BambL, fucose-binding lectin of Burkholderia ambifaria (recombinant, unlabelled) (natural protein)
chain: not shown
Take B1: the “stoichiometry N” value turned out to be 3.
